# Measurements as given in patent US20240327516A1 (Zymeworks, published 2024).
# Like-named read-outs stand apart in the source and are kept apart here.
# B1: Recombinant CD3epsilon/delta Fc fusion protein (Sino Biological) (Fc fusion)
# chain 1: DGNEEMGGITQTPYKVSISGTTVILTCPQYPGSEILWQHNDKNIGGDEDDKNIGSDEDHLSLKEFSELEQSGYYVCYPRGSKPEDANFYLYLRARVCENCMEMD
# chain 2: FKIPIEELEDRVFVNCNTSITWVEGTVGTLLSDITRLDLGKRILDPRGIYRCNGTDIYKDKESTVQVHYRMCQSCVELDPATVA
# notes: also called recombinant CD3 fusion protein
# Tests used:
# [1] = molecular target: T1, CD3 on CD3+ Jurkat cells and primary human T cells (human, UniProt P07766 23-207); assay: flow cytometry on human pan T cells, CD4+ and CD8+ cells together (Alexa Fluor 647 anti-IgG-Fc, MFI)
# T1 construct: whole, on cells; also called native CD3; CD3ε
# Target sequence in this assay (P07766 23-207): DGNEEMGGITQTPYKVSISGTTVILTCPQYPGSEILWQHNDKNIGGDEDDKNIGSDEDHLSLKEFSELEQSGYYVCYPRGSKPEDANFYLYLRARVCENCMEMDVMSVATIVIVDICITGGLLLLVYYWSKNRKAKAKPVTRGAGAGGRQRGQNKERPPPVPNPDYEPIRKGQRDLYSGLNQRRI
# [2] = molecular target: T1, CD3 on CD3+ Jurkat cells and primary …; assay: flow cytometry on human pan T cells, CD4+ gate (Alexa Fluor 647 anti-IgG-Fc, MFI)
# Target sequence in this assay (P07766 23-207): as above
# [3] = molecular target: T2, mesothelin (MSLN) on MSLN-expressing tumor cells (human, UniProt Q13421 296-598); assay: cell-based or functional assay
# T2 sequence (Q13421 other isoform, or with tags, fused parts or gaps limits assumed): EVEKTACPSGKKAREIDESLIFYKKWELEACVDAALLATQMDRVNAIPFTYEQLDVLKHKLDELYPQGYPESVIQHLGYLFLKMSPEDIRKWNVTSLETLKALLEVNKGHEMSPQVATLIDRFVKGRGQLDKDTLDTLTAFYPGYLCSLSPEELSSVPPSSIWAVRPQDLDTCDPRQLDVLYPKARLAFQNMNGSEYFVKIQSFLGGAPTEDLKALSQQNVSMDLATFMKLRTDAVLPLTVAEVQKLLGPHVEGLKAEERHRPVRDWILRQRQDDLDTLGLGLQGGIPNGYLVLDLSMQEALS
# [4] = molecular target: T1, CD3 on CD3+ Jurkat cells and primary …; assay: whole-cell flow cytometry on primary human T cells, apparent affinity
# Target sequence in this assay (P07766 23-207): as the sequence (P07766 23-207) above
# [5] = molecular target: T3, MSLN (form in the assay not stated) (UniProt Q13421 296-580); assay: method and antigen form not stated in Table 12
# T3 sequence (Q13421 other isoform, or with tags, fused parts or gaps limits assumed): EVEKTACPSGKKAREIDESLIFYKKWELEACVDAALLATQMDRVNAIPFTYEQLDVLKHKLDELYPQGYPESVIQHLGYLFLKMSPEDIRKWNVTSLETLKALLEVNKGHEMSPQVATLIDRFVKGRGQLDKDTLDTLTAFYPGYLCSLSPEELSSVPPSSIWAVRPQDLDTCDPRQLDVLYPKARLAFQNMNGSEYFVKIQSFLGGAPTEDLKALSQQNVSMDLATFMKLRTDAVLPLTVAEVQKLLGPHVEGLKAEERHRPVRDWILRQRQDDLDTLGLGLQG
# [6] = molecular target: T2, mesothelin (MSLN) on MSLN-expressing …; assay: assay not given; matches Table 16 (OVCAR-3 cells); reference v32523
# [7] = molecular target: T1, CD3 on CD3+ Jurkat cells and primary …; assay: flow cytometry on human pan T cells, CD8+ gate (Alexa Fluor 647 anti-IgG-Fc, MFI)
# Target sequence in this assay (P07766 23-207): as the sequence (P07766 23-207) above
# [8] = molecular target: T2, mesothelin (MSLN) on MSLN-expressing …; assay: whole-cell flow cytometry on OVCAR-3 cells, apparent affinity
# [9] = molecular target: T4, v31805, MH6T-TriTAC benchmark construct [MSLN (VHH) x Alb (VHH) x CD3 (scFv)]; assay: SPR, BioRad ProteOn XPR36, 25 C, CD3 epsilon/delta-Fc captured on anti-Fc chip; value as printed, implausible for ka
# [10] = molecular target: T4, v31805, MH6T-TriTAC benchmark construct …; assay: SPR, BioRad ProteOn XPR36, 25 C, CD3 epsilon/delta-Fc captured on anti-Fc chip
# [11] = molecular target: T3, MSLN (form in the assay not stated); assay: method not stated; reference v31805
# [12] = molecular target: T3, MSLN (form in the assay not stated); assay: method not stated; reference v29191
# [13] = molecular target: T1, CD3 on CD3+ Jurkat cells and primary …; assay: flow cytometry on primary human T cells, apparent affinity
# [14] = molecular target: T1, CD3 on CD3+ Jurkat cells and primary …; assay: cell ELISA on whole CD3+ Jurkat cells (HRP anti-human IgG Fc, A 450nm)
# [15] = molecular target: T2, mesothelin (MSLN) on MSLN-expressing …
# [16] = molecular target: T1, CD3 on CD3+ Jurkat cells and primary …; assay: whole-cell ELISA on CD3+ Jurkat cells, apparent affinity
# [17] = molecular target: T2, mesothelin (MSLN) on MSLN-expressing …; assay: cell-based or functional assay; remark: listed apart in the source
# [18] = molecular target: T2, mesothelin (MSLN) on MSLN-expressing …; remark: listed apart in the source
# [19] = molecular target: T2, mesothelin (MSLN) on MSLN-expressing …; remark: listed apart in the source
# [20] = molecular target: T1, CD3 on CD3+ Jurkat cells and primary …; assay: flow cytometry on primary human T cells; reference v29191
# Target sequence in this assay (P07766 23-207): as above
# [21] = molecular target: T5, Recombinant MSLN Fc fusion protein (R&D: 3265-MS) (UniProt Q13421 296-580); assay: SPR, BioRad ProteOn XPR36, 25 C, MSLN-Fc captured on anti-Fc chip
# T5 construct: also called recombinant MSLN fusion protein
# [22] = molecular target: T2, mesothelin (MSLN) on MSLN-expressing …; assay: cell-based or functional assay; remark: listed apart in the source
# [23] = molecular target: B1; assay: SPR; reference v31805
# [24] = molecular target: T5, Recombinant MSLN Fc fusion protein …; assay: SPR; reference v31805
# [25] = molecular target: T2, mesothelin (MSLN) on MSLN-expressing …; assay: flow cytometry on MSLN+ OVCAR-3 cells (Alexa Fluor 647 anti-IgG-Fc, MFI)
# [26] = molecular target: T1, CD3 on CD3+ Jurkat cells and primary …; assay: flow cytometry on primary human T cells; reference v31805
# Target sequence in this assay (P07766 23-207): as above
# [27] = molecular target: B1; assay: assay not given; matches Table 15 (SPR); reference v31805
# [28] = molecular target: T5, Recombinant MSLN Fc fusion protein …; assay: as above
# [29] = molecular target: B1; assay: SPR, BioRad ProteOn XPR36, 25 C, CD3 epsilon/delta-Fc captured on anti-Fc chip
binder,measurement,setting,value
"v29191, 2+1 Fab^3 TCB benchmark construct [MSLN (2 Fab) x CD3 (1 Fab)] (bispecific antibody, human IgG1, kappa, L234A L235A, also called Fab^3 benchmark) heavy 1: not shown heavy 2: QVQLVQSGAEVKKPGASVKVSCKASGYSFTGYTMNWVRQAPGQGLEWMGLITPYNGASSYNQKFRGKATMTVDTSTSTVYMELSSLRSEDTAVYYCARGGYDGRGFDYWGQGTLVTVSSASTKGPSVFPLAPSSKSTSGGTAALGCLVEDYFPEPVTVSWNSGALTSGVHTFPAVLQSSGLYSLSSVVTVPSSSLGTQTYICNVNHKPSNTKVDEKVEPKSCDKTHTCPPCPAPEAAGGPSVFLFPPKPKDTLMISRTPEVTCVVVDVSHEDPEVKFNWYVDGVEVHNAKTKPREEQYNSTYRVVSVLTVLHQDWLNGKEYKCKVSNKALGAPIEKTISKAKGQPREPQVCTLPPSRDELTKNQVSLSCAVKGFYPSDIAVEWESNGQPENNYKTTPPVLDSDGSFFLVSKLTVDKSRWQQGNVFSCSVMHEALHNHYTQKSLSLSPG light 1: EVQLLESGGGLVQPGGSLRLSCAASGFTFSTYAMNWVRQAPGKGLEWVSRIRSKYNNYATYYADSVKGRFTISRDDSKNTLYLQMNSLRAEDTAVYYCVRHGNFGNSYVSWFAYWGQGTLVTVSSASVAAPSVFIFPPSDEQLKSGTASVVCLLNNFYPREAKVQWKVDNALQSGNSQESVTEQDSKDSTYSLSSTLTLSKADYEKHKVYACEVTHQGLSSPVTKSFNRGEC light 2: DIQMTQSPSSLSASVGDRVTITCSASSSVSYMHWYQQKSGKAPKLLIYDTSKLASGVPSRFSGSGSGTDFTLTISSLQPEDFATYYCQQWSKHPLTFGQGTKLEIKRTVAAPSVFIFPPSDRKLKSGTASVVCLLNNFYPREAKVQWKVDNALQSGNSQESVTEQDSKDSTYSLSSTLTLSKADYEKHKVYACEVTHQGLSSPVTKSFNRGEC",EC50 (read off the curve),[1],~20 nM
same,EC50 (read off the curve),[2],~20 nM
same,"IC50 of T cell-dependent cytotoxicity on OVCAR-3 cells (pan T cells, E:T 5:1, 72 h)",[3],0.89 pM
same,EC50,[4],18.7 nM
same,Affinity to MSln,[5],0.02 nM
same,fold higher relative affinity vs v32523,[6],7 fold
same,EC50 (read off the curve),[7],~30 nM
same,EC50,[8],0.4 nM
B1,kon,[9],5.04e+06 M⁻¹ s⁻¹
same,Kd,[10],0.75 nM
same,koff,[10],0.00379 s⁻¹
"v21812, trivalent and bispecific antibody construct [MSLN (2 scFv) x CD3 (1 Fab)] (bispecific antibody, human IgG1, lambda, L234A L235A, also called parental construct of v32523; dual scFv trivalent variant) heavy 1: QVQLVQSGAEVKKPGASVKVSCKASGYSFTGYTMNWVRQAPGQGLEWMGLITPYNGASSYNQKFRGKATMTVDTSTSTVYMELSSLRSEDTAVYYCARGGYDGRGFDYWGQGTLVTVSSGGGGSGGGGSGGGGSDIQMTQSPSSLSASVGDRVTITCSASSSVSYMHWYQQKSGKAPKLLIYDTSKLASGVPSRFSGSGSGTDFTLTISSLQPEDFATYYCQQWSGYPLTFGQGTKLEIKAAEPKSSDKTHTCPPCPAPEAAGGPSVFLFPPKPKDTLMISRTPEVTCVVVSVSHEDPEVKFNWYVDGVEVHNAKTKPREEQYNSTYRVVSVLTVLHQDWLNGKEYKCKVSNKALPAPIEKTISKAKGQPREPQVYVLPPSRDELTKNQVSLLCLVKGFYPSDIAVEWESNGQPENNYLTWPPVLDSDGSFFLYSKLTVDKSRWQQGNVFSCSVMHEALHNHYTQKSLSLSPG heavy 2: not shown light: NFMLTQPHSVSESPGKTVTISCKRNTGNIGSNYVNWYQQHEGSSPTTIIYRNDKRPDGVSDRFSGSIDRSSKSASLTISNLKTEDEADYFCQSYSSGFIFGGGTKLTVLGQPKAAPSVTLFPPSSEELQANKATLVCLISDFYPGAVTVAWKADSSPVKAGVETTTPSKQSNNKYAASSYLSLTPEQWKSHRSYSCQVTHEGSTVEKTVAPTECS",fold lower affinity vs v31805,[11],~20 fold
same,fold lower binding affinity vs v29191,[12],~45 fold
same,EC50,[13],58.8 nM
same,"IC50 of T cell-dependent cytotoxicity on OVCAR-3 cells (pan T cells, E:T 5:1, 72 h)",[3],0.05 pM
same,EC50 (read off the curve),[14],~9 nM
same,Affinity to MSln,[5],0.9 nM
same,EC50,[15],0.4 nM
same,EC50,[16],17.7 nM
same,maximum killing of BxPC3 cells,[17],75%
same,Kd,[18],~0.47 nM
same,EC50 (read off the curve),[19],~0.5 nM
"v32523, trivalent and bispecific antibody construct [MSLN (2 scFv) x CD3 (1 Fab)] (bispecific antibody, human IgG1, lambda, L234A L235A, also called construct v32523; stability engineered construct) heavy 1: not shown heavy 2: DIQMTQSPSSLSASVGDRVTITCSASSSVSYMHWYQQKSGKAPKLLIYDTSKLASGVPSRFSGSGSGTDFTLTISSLQPEDFATYYCQQWSGYPLTFGQGTKLEIKGGGGSGGGGSGGGGSGGGGSQVQLVQSGAEVKKPGASVKVSCKASGYSFTGYTMNWVRQAPGQGLEWMGLITPYNGASSYNQKFRGKATMTVDTSTSTVYMELSSLRSEDTAVYYCARGGYDGRGFDYWGQGTLVTVSSAAEPKSSDKTHTCPPCPAPEAAGGPSVFLFPPKPKDTLMISRTPEVTCVVVSVSHEDPEVKFNWYVDGVEVHNAKTKPREEQYNSTYRVVSVLTVLHQDWLNGKEYKCKVSNKALPAPIEKTISKAKGQPREPQVYVLPPSRDELTKNQVSLLCLVKGFYPSDIAVEWESNGQPENNYLTWPPVLDSDGSFFLYSKLTVDKSRWQQGNVFSCSVMHEALHNHYTQKSLSLSPG light: NFMLTQPHSVSESPGKTVTISCKRNTGNIGSNYVNWYQQHEGSSPTTIIYRNDKRPDGVSDRFSGSIDRSSKSASLTISNLKTEDEADYFCQSYSSGFIFGGGTKLTVLGQPKAAPSVTLFPPSSEELQANKATLVCLISDFYPGAVTVAWKADSSPVKAGVETTTPSKQSNNKYAASSYLSLTPEQWKSHRSYSCQVTHEGSTVEKTVAPTECS",fold lower apparent affinity vs v29191,[20],~2.7 fold
same,EC50 (read off the curve),[1],~60 nM
same,EC50 (read off the curve),[2],~60 nM
same,Kd,[21],1.01 nM
same,koff,[21],0.000719 s⁻¹
same,kon,[21],714000 M⁻¹ s⁻¹
same,"IC50 of T cell-dependent cytotoxicity on HCT116 cells (pan T cells, E:T 5:1, 72 h)",[22],1.1 pM
same,EC50,[4],50.5 nM
same,fold lower affinity vs v31805,[23],53 fold
same,fold lower affinity vs v31805,[24],32 fold
same,EC50 (read off the curve),[25],~3 nM
same,fold lower apparent affinity vs v31805,[26],~8.6 fold
same,fold lower affinity vs v31805,[27],~50 fold
same,fold lower affinity vs v31805,[28],~30 fold
same,EC50 (read off the curve),[7],~80 nM
same,Kd,[29],40.1 nM
same,koff,[29],0.0112 s⁻¹
same,kon,[29],279000 M⁻¹ s⁻¹
same,EC50,[8],2.8 nM
